From US20190330349A1

Biological target: human VISTA (V-domain Ig Suppressor of T cell Activation) (human) (UniProt Q9H7M9)
Assay: Table 1 column 'Kd, M'; method not stated

Kd | Binder
0.83 nM | VSTB63 (antibody, from a related filing, V domains shown) VH: QVQLQESGPGLVKPSETLSLTCAVSGFSITSDFAWNWIRQPPGKGLEWIGYITYSGFTNYNPSLESRVTISVDTSKNQFSLKLSSVTAADTAVYYCARQEYGNYVWYFDVWGQGTLVTVSS VL: DIVMTQTPLSLSVTPGQPASISCRASESVEYYGTSLLQWYLQKPGQPPQLLIYAASNVESGVPDRFSGSGSGTDFTLKISRVEAEDVGVYYCQQSRKVPWTFGQGTKLEIK
0.0253 nM | VSTB54 (antibody, from a related filing, V domains shown) VH: QVQLVQSGAEVKKPGASVKVSCKASGYNIKDTYMHWVRQAPGQGLEWMGRIDPTHGYVIYDPKFQGRVTMTRDTSTSTVYMELSSLRSEDTAVYYCARDRFDPYWFLDVWGQGTLVTVSS VL: DIVMTQTPLSLSVTPGQPASISCRASESVEYYGTSLMQWYLQKPGQSPQLLIYDAFNVESGVPDRFSGSGSGTDFTLKISRVEAEDVGVYYCQQSRKVPWTFGQGTKLEIK
